Experimental data: the supplement of paper PMC12667976
± gives the standard error.

B1: library; numbered along this chain (parent)
chain: MATDAALRRLLRLHRTEIAVAVDSAFPLLHALADHDVVPEDKFQETLHLKEKEGCPQAFHALLSWLLTQDSTAILDFWRVLFKDYNLERYGRLQPILDSFPKDVDLSQPRKGRKPPAVPKALVPPPRLPTKRKASEEARAAAPAALTPRGTASPGSQLKAKPPKKPESSAEQQRLPLGNGIQTMSASVQRAVAMSSGDVPGARGAVEGILIQQVFESGGSKKCIQVGGEFYTPSKFEDSGSGKNKARSSSGPKPLVRAKGAQGAAPGGGEARLGQQGSVPAPLALPSDPQLHQKNEDECAVCRDGGELICCDGCPRAFHLACLSPPLREIPSGTWRCSSCLQATVQEVQPRAEEPRPQEPPVETPLPPGLRSAGEEVRGPPGEPLAGMDTTLVYKHLPAPPSAAPLPGLDSSALHPLLCVGPEGQQNLAPGARCGVCGDGTDVLRCTHCAAAFHWRCHFPAGTSRPGTGLRCRSCSGDVTPAPVEGVLAPSPARLAPGPAKDDTASHEPALHRDDLESLLSEHTFDGILQWAIQSMARPAAPFPS

Variants of: B1
Assay: AIRE transcriptional activation functional score (insulin promoter-GFP; nonsense median 0, synonymous median 1) (normalised score); higher = higher AIRE activity (more reporter activation)
Details: with insulin promoter-GFP reporter in HEK293
Description: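 Deep mutational scan of full-length human AIRE (codon-optimized cDNA, DT-POPCode NNN libraries over three regions) integrated at a Bxb1 landing pad in HEK293 cells carrying an insulin core promoter-GFP reporter at a Flp-In site. Cells were sorted for the top 10% GFP about 14 days after transfection. Variant frequency log-ratios (select vs non-select, TileSeq) were rescaled so that the nonsense median is 0 and the synonymous median is 1, then averaged over biological replicates.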

Going from K50G to K42Q, the “AIRE transcriptional activation functional score” value falls from 1.42 ± 0.11 to 0.53 ± 0.32.

First: A432R
Second: D297K
The “AIRE transcriptional activation functional score” value of the first is lower: 0.993 ± 0.31 for the first, 1.49 ± 0.062 for the second.

Going from D297H to A134M, the “AIRE transcriptional activation functional score” value falls from 0.894 ± 0.14 to -0.832 ± 0.19.

C311E and C311D are within error of each other in “AIRE transcriptional activation functional score” value: 0.822 ± 0.35 for the first, 0.772 ± 0.27 for the second.

Going from P326G to D23F, the “AIRE transcriptional activation functional score” value falls from 0.87 ± 0.28 to 0.3 ± 0.21.

P355E and P355N are within error of each other in “AIRE transcriptional activation functional score” value: 0.969 ± 0.29 for the first, 1.11 ± 0.24 for the second.

First: V80A
Second: P166H
The “AIRE transcriptional activation functional score” value of the first is lower: -0.0867 ± 0.36 for the first, 1.95 ± 0.16 for the second.

Compared with G208V, G208K is higher in “AIRE transcriptional activation functional score” value: 0.173 ± 0.17 for the first, 0.899 ± 0.23 for the second.

Going from R247Q to Q157M, the “AIRE transcriptional activation functional score” value falls from 0.669 ± 0.11 to 0.398 ± 0.14.

Compared with T463V, T463K is lower in “AIRE transcriptional activation functional score” value: 1.49 ± 0.074 for the first, 0.983 ± 0.24 for the second.

A532Y and A532R are within error of each other in “AIRE transcriptional activation functional score” value: 0.432 ± 0.23 for the first, 0.215 ± 0.15 for the second.

Going from D34C to S217F, the “AIRE transcriptional activation functional score” value rises from -0.617 ± 0.33 to 0.411 ± 0.46.

First: S217C
Second: K102Q
The “AIRE transcriptional activation functional score” value of the first is lower: 1.16 ± 0.35 for the first, 2.65 ± 0.86 for the second.

Going from K102F to P405H, the “AIRE transcriptional activation functional score” value falls from 1.34 ± 0.057 to 1.04 ± 0.12.

P405K and E485D are within error of each other in “AIRE transcriptional activation functional score” value: 1 ± 0.19 for the first, 0.981 ± 0.16 for the second.

P460L and S324E are within error of each other in “AIRE transcriptional activation functional score” value: 0.827 ± 0.23 for the first, 0.773 ± 0.19 for the second.

Q44K and P124F are within error of each other in “AIRE transcriptional activation functional score” value: 1.33 ± 0.33 for the first, 1.35 ± 0.25 for the second.

First: T390Y
Second: S332C
The “AIRE transcriptional activation functional score” value of the first is higher: 1.62 ± 0.034 for the first, 0.951 ± 0.11 for the second.

Compared with S332W, P481N is lower in “AIRE transcriptional activation functional score” value: 1.41 ± 0.042 for the first, 0.00715 ± 0.27 for the second.

A6C and R132T are within error of each other in “AIRE transcriptional activation functional score” value: 0.756 ± 0.3 for the first, -0.125 ± 0.69 for the second.

T344R and T344N are within error of each other in “AIRE transcriptional activation functional score” value: 1.08 ± 0.16 for the first, 0.983 ± 0.14 for the second.

T344L and T344H are within error of each other in “AIRE transcriptional activation functional score” value: 0.939 ± 0.34 for the first, 1.29 ± 0.11 for the second.

S476E and S287R are within error of each other in “AIRE transcriptional activation functional score” value: 0.948 ± 0.19 for the first, 1.04 ± 0.26 for the second.

Going from S287Y to H30P, the “AIRE transcriptional activation functional score” value falls from 1.17 ± 0.15 to -0.0919 ± 0.43.

Compared with H30S, G387A is higher in “AIRE transcriptional activation functional score” value: 0.156 ± 0.39 for the first, 1.19 ± 0.31 for the second.

Going from D439L to D439C, the “AIRE transcriptional activation functional score” value rises from 0.586 ± 0.25 to 1.16 ± 0.086.

First: S187Q
Second: S187R
The “AIRE transcriptional activation functional score” value of the first is lower: 0.823 ± 0.13 for the first, 1.18 ± 0.17 for the second.

D389L and Q172S are within error of each other in “AIRE transcriptional activation functional score” value: 0.218 ± 0.2 for the first, 0.645 ± 0.63 for the second.

Compared with C299K, G477N is higher in “AIRE transcriptional activation functional score” value: 0.668 ± 0.1 for the first, 1.12 ± 0.16 for the second.

L28K and L28I are within error of each other in “AIRE transcriptional activation functional score” value: 0.863 ± 0.19 for the first, 0.53 ± 0.16 for the second.

Going from S506Y to L122I, the “AIRE transcriptional activation functional score” value falls from 1.42 ± 0.12 to 0.612 ± 0.24.

L62S and R79A are within error of each other in “AIRE transcriptional activation functional score” value: 0.0796 ± 0.81 for the first, 0.0777 ± 0.15 for the second.

S156Q and S156A are within error of each other in “AIRE transcriptional activation functional score” value: 0.543 ± 0.33 for the first, 0.976 ± 0.7 for the second.

Compared with S107Y, P544Y is higher in “AIRE transcriptional activation functional score” value: 0.891 ± 0.32 for the first, 1.65 ± 0.029 for the second.

G201V and G201P are within error of each other in “AIRE transcriptional activation functional score” value: 0.941 ± 0.22 for the first, 0.598 ± 0.15 for the second.

P266Y and F215I are within error of each other in “AIRE transcriptional activation functional score” value: 1.06 ± 0.22 for the first, 0.64 ± 0.21 for the second.

Compared with F215K, V487F is higher in “AIRE transcriptional activation functional score” value: -0.187 ± 0.16 for the first, 0.765 ± 0.31 for the second.

L428N and E307C are within error of each other in “AIRE transcriptional activation functional score” value: 1.08 ± 0.23 for the first, 0.732 ± 0.45 for the second.

E307R and E307G are within error of each other in “AIRE transcriptional activation functional score” value: 1.28 ± 0.21 for the first, 1.18 ± 0.31 for the second.

G251H and P119S are within error of each other in “AIRE transcriptional activation functional score” value: 1.02 ± 0.059 for the first, 0.765 ± 0.48 for the second.

P119A and Q275K are within error of each other in “AIRE transcriptional activation functional score” value: 1.03 ± 0.56 for the first, 1.06 ± 0.11 for the second.

With S239D the “AIRE transcriptional activation functional score” value was 0.131 ± 0.14.
